Assay results from IntAct's records for PubMed 17537733.

Target: kdm1a_human KDM1A (UniProt O60341)

Histone H3.1t (Homo sapiens) (from UniProt Q16695) K5M
effect of a mutation on the interaction: decreasing interaction
